From paper doi:10.1101/2024.10.30.621104 (bioRxiv, 2024)

Biological target: the molecule itself
Experiment: single-molecule photobleaching step counting

B1: HSV-1 origin binding protein UL9 labelled at its C-terminus with Atto647N through a ybbR-tag (enzyme, Herpes simplex virus type 1, UniProt P10193 1-851, looked up)
chain: MPFVGGAESGDPLGAGRPIGDDECEQYTSSVSLARMLYGGDLAEWVPRVHPKTTIERQQHGPVTFPNASAPTARCVTVVRAPMGSGKTTALIRWLREAIHSPDTSVLVVSCRRSFTQTLATRFAESGLVDFVTYFSSTNYIMNDRPFHRLIVQVESLHRVGPNLLNNYDVLVLDEVMSTLGQLYSPTMQQLGRVDALMLRLLRICPRIIAMDATANAQLVDFLCGLRGEKNVHVVVGEYAMPGFSARRCLFLPRLGTELLQAALRPPGPPSGPSPDASPEARGATFFGELEARLGGGDNICIFSSTVSFAEIVARFCRQFTDRVLLLHSLTPLGDVTTWGQYRVVIYTTVVTVGLSFDPLHFDGMFAYVKPMNYGPDMVSVYQSLGRVRTLRKGELLIYMDGSGARSEPVFTPMLLNHVVSSCGQWPAQFSQVTNLLCRRFKGRCDASACDTSLGRGSRIYNKFRYKHYFERCTLACLSDSLNILHMLLTLNCIRVRFWGHDDTLTPKDFCLFLRGVHFDALRAQRDLRELRCRDPEASLPAQAAETEEVGLFVEKYLRSDVAPAEIVALMRNLNSLMGRTRFIYLALLEACLRVPMATRSSAIFRRIYDHYATGVIPTINVTGELELVALPPTLNVTPVWELLCLCSTMAARLHWDSAAGGSGRTFGPDDVLDLLTPHYDRYMQLVFELGHCNVTDGLLLSEEAVKRVADALSGCPPRGSVSETDHAVALFKIIWGELFGVQMAKSTQTFPGAGRVKNLTKQTIVGLLDAHHIDHSACRTHRQLYALLMAHKREFAGARFKLRVPAWGRCLRTHSSSANPNADIILEAALSELPTEAWPMMQGAVNFSTL
modifications: Atto647N fluorophore on the C-terminus through a ybbR-tag
stoichiometry N: 2
